The values below come from the supplement of paper PMC9170038.

In data set [1] the test system is MS2 coat protein. As to the kind of experiment: apparent KD of MS2 coat protein, switch ON state; designed switch direction (-1 OFF switch, 1 ON switch): -1; higher = weaker reporter binding. As to conditions: FMN input: 0 or 200 uM; Eterna round: R93 (includes R88 designs). Put shortly:
(§1)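 Titrations with SNAP-549-labelled MS2 coat protein ran in twofold steps from 0.7 or 1.5 nM to 3 µM, each step taking 0.8–1.5 h at the start and 10–20 min toward the end. The targets were designed RNA switches transcribed on-chip from Illumina sequencing clusters, held in 100 mM Tris-HCl pH 7.5, 80 mM KCl, 4 mM MgCl2, without or with constant ligand. Apparent KD was taken per design as the median of normalised cluster binding-curve fits.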

Data set [2] has as its system MS2 coat protein. The data set is described as follows: apparent KD of MS2 coat protein, switch OFF state (with FMN for OFF switches, without FMN for ON switches); designed switch direction (-1 OFF switch, 1 ON switch): -1; higher = weaker reporter binding. The conditions noted are these: FMN input: 0 or 200 uM; Eterna round: R93 (includes R88 designs). Put shortly: as §1

As to “AAGGGACAUGAGGAUCACCCAUGUAAGGAUAUCGGAAAAGGAAAAAAAAAAAAGAAGACGAGAAGGUACAAAAA”, the “apparent KD of MS2 coat protein” value came out at 0.122 µM in the data set on MS2 coat protein [1] and 0.0716 µM in the data set on MS2 coat protein [2].

“AAGGGACAUGAGGAUCACCCAUGUGAGGAUAUGACGUAAAUAAAGAAAGAAGAAAUCGUCAGAAGGCACACCAA [55%, Disencluded 2, 3]”: the “apparent KD of MS2 coat protein” value was 0.067 µM with MS2 coat protein [1] and 0.117 µM in the data set on MS2 coat protein [2].

On to “AAGGGACAUGAGGAUCACCCAUGUUAGGAUAUGCUAUGGAAAAUAAAAUAAAAACAUAGCAGAAGGAACAAAAA [Mat - Exclusion 1 - Eli mod - D36]”, for which the “apparent KD of MS2 coat protein” value worked out at 0.0432 µM with MS2 coat protein [1] and 0.0605 µM with MS2 coat protein [2].

For the sequence “AAGGUAGGAGGAUAUACAUAGAUACAGAUACAUGUAGACGUACAUGAGGAUCACCCAUGUAGAAGGCCUAUAUA [Mat - Same state - Mayanna Mod - D147]”, the “apparent KD of MS2 coat protein” value was determined as 0.0973 µM with MS2 coat protein [1] and 0.107 µM with MS2 coat protein [2].

Consider “AAGUGCGCAGGAUAUACAUGAGGAUCACCCAUGUAAAGAAAAGAAAGAUCCGAAGAAAGUAGAAGGGCGUGCAA [Variant 1 of Mod 1 of Ex3 sub 3, by Tesla's Dusciple Round 1]”, for which the “apparent KD of MS2 coat protein” value in the data set on MS2 coat protein [1] stood at 0.0496 µM; with MS2 coat protein [2], 0.209 µM.

As for “AAUAUGUCAGGAUAUGUGUAAAGAAUAAAAGAAAUAACAACACAGAAGGGACAUGAGGAUCACCCAUGUCAACA [May 33]”, the “apparent KD of MS2 coat protein” value with MS2 coat protein [1] was 0.0248 µM; in the data set with MS2 coat protein [2], 0.018 µM.

As for “AAUGGUGCAGGAUAUACAUGAGGAUCACCCAUGUAGAUCAGACAUAUGGUCGAAACAUGUAGAAGGGCACCAAA [Ex 3May 54]”, the figures for the “apparent KD of MS2 coat protein” value with MS2 coat protein [1] and in the data set with MS2 coat protein [2] were 0.112 µM and 0.319 µM, respectively.

As for “AAUGUACGAGGAUAUACAUAGAUACAGAUACAUGUAGACGUACAUGAGGAUCACCCAUGUAGAAGGCGUAUAUA [Mat - Same state - Mayanna Mod - D113]”, the “apparent KD of MS2 coat protein” value in the data set on MS2 coat protein [1] was 0.0828 µM; in the data set on MS2 coat protein [2], 0.172 µM.

In the case of “ACAAAACAUGAGGAUCACCCAUGUGAGGAUAUGCGAAACAAACAAACAAACAAACAAAGCAGAAGGCACAACAA [Ex 1 Tesla 3]”, the “apparent KD of MS2 coat protein” value amounted to 0.0195 µM in the data set with MS2 coat protein [1] and 0.031 µM in the data set with MS2 coat protein [2].

Take “ACAAGACAUGAGGAUCACCCAUGUGAGGAUAUGCUCGGAUGACAUGACGUUAGCUAACGCAGAAGGCACAAUAA [Exclusion 1]”: the “apparent KD of MS2 coat protein” value worked out at 0.0287 µM with MS2 coat protein [1] and 0.0367 µM in the data set with MS2 coat protein [2].

Consider “ACAGUUACAGGAUAUACAUGAAUAACUUCAAAGAAAACUCUACAUGAGGAUCACCCAUGUAGAAGGGUAACUGA [Ex2 Design 200 (fingers crossed): Random 18]”, for which the “apparent KD of MS2 coat protein” value in the data set on MS2 coat protein [1] was found to be 0.0143 µM; in the data set with MS2 coat protein [2], 0.0188 µM.

As for “ACCUGACAUGAGGAUCACCCAUGUCAGGAUAUGACUUCGAAAAUAAAAUAAAACGAUGUCAGAAGGGACAUGGG [Design 71: Sub-opt PB]”, the “apparent KD of MS2 coat protein” value was 0.0218 µM in the data set on MS2 coat protein [1] and 0.0153 µM in the data set with MS2 coat protein [2].

Turning to “ACUAAUGAAGGAUAUACAAACAAAAAAAAAACAAAAAAAAAACAUGAGGAUCACCCAUGUAGAAGGUCAAAAAU [JR_Exc002_Sub1201]”, the figures for the “apparent KD of MS2 coat protein” value in the data set with MS2 coat protein [1] and in the data set with MS2 coat protein [2] were 0.022 µM and 0.02 µM, respectively.

Take “ACUGAUACAGGAUAUACAUGAGUGAAAAAAGUAAAUCCACUACAUGAGGAUCACCCAUGUAGAAGGGUAUCAGA [Ex2 Design 179: Random 5B]”: the “apparent KD of MS2 coat protein” value in the data set with MS2 coat protein [1] came to 0.0521 µM; in the data set on MS2 coat protein [2], 0.0427 µM.

In the case of “ACUGAUACAGGAUAUACGUGAGUGGAAAAAGUGUUUCCACUACAUGAGGAUCACCCAUGUAGAAGGGUAUCAGA [Ex2 Design 180: Random 6]”, the “apparent KD of MS2 coat protein” value with MS2 coat protein [1] was 0.0774 µM; in the data set on MS2 coat protein [2], 0.0915 µM.

Turning to “ACUUGACAUGAGGAUCACCCAUGUCAGGAUAUAGUACGACAAAUAAAUAAAAGUUCUACUAGAAGGGAUAUGGA [Amethyst 53]”, the “apparent KD of MS2 coat protein” value in the data set on MS2 coat protein [1] was determined as 0.017 µM; in the data set on MS2 coat protein [2], 0.0155 µM.

In the case of “AGAAAGCGAGGAUAUGCUCGGGUUGAAUGACGAGAGAAUACACAUGAGGAUCACCCAUGUAGAAGGUGUAUAAA [JR_Exc002_Sub1712]”, the “apparent KD of MS2 coat protein” value worked out at 0.054 µM with MS2 coat protein [1] and 0.0351 µM in the data set with MS2 coat protein [2].

In the case of “AGAAAGGCAGGAUAUACAUGAGGAUCACCCAUGUUAAGAAAGUGCGAAAGCACAAGAAGUAGAAGGGCCAAGAA [Rupert goes to college]”, the “apparent KD of MS2 coat protein” value in the data set on MS2 coat protein [1] came out at 0.0232 µM; with MS2 coat protein [2] it was 0.0192 µM.

Consider “AGAAAGUCAGGAUAUACGAAAGUGCGAAAGCACACAAGGGAACAUGAGGAUCACCCAUGUAGAAGGGACAAGAA [Diamond 78]”, for which the “apparent KD of MS2 coat protein” value in the data set on MS2 coat protein [1] was determined as 0.0709 µM; in the data set with MS2 coat protein [2] it was 0.0917 µM.

Consider “AGAACGUCAGGAUAUCGAACAACAAGUAAAUAGAGAAGAAGCGAGAAGGGACAUGAGGAUCACCCAUGUAAGAA [e4-3]”, for which the results for the “apparent KD of MS2 coat protein” value with MS2 coat protein [1] and in the data set with MS2 coat protein [2] were 0.0625 µM and 0.0489 µM, respectively.

With “AGAACGUCAGGAUAUGCAACAACAAGUAAAUAGAGAAGAAGGCAGAAGGGACAUGAGGAUCACCCAUGUAAGAA [e4]”, the “apparent KD of MS2 coat protein” value amounted to 0.0441 µM in the data set on MS2 coat protein [1] and 0.0299 µM in the data set on MS2 coat protein [2].

As for “AGAAUACAUGAGGAUCACCCAUGUGAGGAUAUGCAAAUAAAAAUAAAAUAAAAUAAUUGCAGAAGGCACGAAAG [EX 1 May 23]”, the “apparent KD of MS2 coat protein” value with MS2 coat protein [1] amounted to 0.0444 µM; in the data set with MS2 coat protein [2], 0.0912 µM.

For the sequence “AGCAAACAUGAGGAUCACCCAUGUGAGGAUAUGAACGAAAAUAAAUAAAAAUAAAAGUUCAGAAGGCACGAGCA [66%, Wbt, 26]”, the entries for the “apparent KD of MS2 coat protein” value with MS2 coat protein [1] and with MS2 coat protein [2] were 0.0304 µM and 0.0356 µM, respectively.

As for “AGCAAGAGAGGAUAUACAUAAAAAAAAAAAGUCUGAUCCCUACAUGAGGAUCACCCAUGUAGAAGGCUCUGGCA [Ex2 Design 156: Sub-opt 20]”, the figures for the “apparent KD of MS2 coat protein” value with MS2 coat protein [1] and with MS2 coat protein [2] were 0.0288 µM and 0.0262 µM, respectively.

Regarding “AGCUAGUCAGGAUAUACAAAAUGAUUGCAAAAGCAAUCAACACAUGAGGAUCACCCAUGUAGAAGGGACUAGCA [Mat - Exclusion 2 - JL-Eli mod - D44]”, the “apparent KD of MS2 coat protein” value in the data set with MS2 coat protein [1] stood at 0.019 µM; in the data set with MS2 coat protein [2] it was 0.0194 µM.

On to “AGCUAGUCAGGAUAUACAAACAUGUCAAAAGACGUGAAAAGACAUGAGGAUCACCCAUGUAGAAGGGACUAGCA [Mat - Exclusion 2 - JL mod - D14]”, for which the figures for the “apparent KD of MS2 coat protein” value in the data set with MS2 coat protein [1] and in the data set with MS2 coat protein [2] were 0.0298 µM and 0.0905 µM, respectively.

As for “AGCUAGUCAGGAUAUACGAACAGGUCAAAAGACUUGAAGGGACAUGAGGAUCACCCAUGUAGAAGGGACUAGCA [Mat - Exclusion 2 - JL mod - D25]”, the results for the “apparent KD of MS2 coat protein” value with MS2 coat protein [1] and in the data set on MS2 coat protein [2] were 0.0322 µM and 0.128 µM, respectively.

“AGCUAGUCAGGAUAUACGAACAUGUCACAAGACGUGAAGGGACAUGAGGAUCACCCAUGUAGAAGGGACUAGCA [74%, Web mod - With 1 more C's]”: the “apparent KD of MS2 coat protein” value with MS2 coat protein [1] turned out to be 0.0529 µM; in the data set on MS2 coat protein [2], 0.203 µM.

Take “AGCUAGUCAGGAUAUACGCAAACGAACGAAGCAGUGAAGGGACAUGAGGAUCACCCAUGUAGAAGGGACUAGCA [Diamond 30]”: the “apparent KD of MS2 coat protein” value turned out to be 0.0268 µM in the data set with MS2 coat protein [1] and 0.0755 µM with MS2 coat protein [2].

“AGGAAACAUGAGGAUCACCCAUGUAAGGAUAUGAACGAAAAUAAAUAAAAAUAAAAGUUCAGAAGGUACGAAAA [66%, Wbt, 7]”: the “apparent KD of MS2 coat protein” value was found to be 0.0307 µM in the data set with MS2 coat protein [1] and 0.0551 µM in the data set with MS2 coat protein [2].
